Twelve sequences from the supplement of paper PMC5998384 can be followed below.

For this data set, the system named is HeLa Kyoto. Put plainly: melting temperature (median over replicates), in situ; higher = more thermally stable.
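Note: HeLa Kyoto cells synchronized by double thymidine or nocodazole block, proteins quantified by TMT10plex mass spectrometry, three independent biological replicates.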

As to “MKVLGRSFFWVLFPVLPWAVQAVEHEEVAQRVIKLHRGRGVAAMQSRQWVRDSCRKLSGLLRQKNAVLNKLKTAIGAVEKDVGLSDEEKLFQVHTFEIFQKELNESENSVFQAVYGLQRALQGDYKDVVNMKESSRQRLEALREAAIKEETEYMELLAAEKHQVEALKNMQHQNQSLSMLDEILEDVRKAADRLEEEIEEHAFDDNKSVKGVNFEAVLRVEEEEANSKQNITKREVEDDLGLSMLIDSQNNQYILTKPRDSTIPRADHHFIKDIVTIGMLSLPCGWLCTAIGLPTMFGYIICGVLLGPSGLNSIKSIVQVETLGEFGVFFTLFLVGLEFSPEKLRKVWKISLQGPCYMTLLMIAFGLLWGHLLRIKPTQSVFISTCLSLSSTPLVSRFLMGSARGDKEGDIDYSTVLLGMLVTQDVQLGLFMAVMPTLIQAGASASSSIVVEVLRILVLIGQILFSLAAVFLLCLVIKKYLIGPYYRKLHMESKGNKEILILGISAFIFLMLTVTELLDVSMELGCFLAGALVSSQGPVVTEEIATSIEPIRDFLAIVFFASIGLHVFPTFVAYELTVLVFLTLSVVVMKFLLAALVLSLILPRSSQYIKWIVSAGLAQVSEFSFVLGSRARRAGVISREVYLLILSVTTLSLLLAPVLWRAAITRCVPRPERRSSL [TMCO3]”, the melting temperature was found to be 54.4 °C (cell cycle stage: G1/S) and 52.9 °C (cell cycle stage: mitosis). For the setting “cell cycle stage: mitosis”, “MLAGAGRPGLPQGRHLCWLLCAFTLKLCQAEAPVQEEKLSASTSNLPCWLVEEFVVAEECSPCSNFRAKTTPECGPTGYVEKITCSSSKRNEFKSCRSALMEQRLFWKFEGAVVCVALIFACLVIIRQRQLDRKALEKVRKQIESI [JTB]” yielded a melting temperature of 53.4 °C.

Turning to “MLQQDSNDDTEDVSLFDAEEETTNRPRKAKIRHPVASFFHLFFRVSAIIVYLLCGLLSSSFITCMVTIILLLSCDFWAVKNVTGRLMVGLRWWNHIDEDGKSHWVFESRKESSQENKTVSEAESRIFWLGLIACPVLWVIFAFSALFSFRVKWLAVVIMGVVLQGANLYGYIRCKVRSRKHLTSMATSYFGKQFLRQNTGDDQTS [TVP23B]”, the melting temperature (cell cycle stage: mitosis) turned out to be 56 °C. Consider “MLRRVTVAAVCATRRKLCEAGRELAALWGIETRGRCEDSAAARPFPILAMPGRNKAKSTCSCPDLQPNGQDLGENSRVARLGADESEEEGRRGSLSNAGDPEIVKSPSDPKQYRYIKLQNGLQALLISDLSNMEGKTGNTTDDEEEEEVEEEEEDDDEDSGAEIEDDDEEGFDDEDEFDDEHDDDLDTEDNELEELEERAEARKKTTEKQSAAALCVGVGSFADPDDLPGLAHFLEHMVFMGSLKYPDENGFDAFLKKHGGSDNASTDCERTVFQFDVQRKYFKEALDRWAQFFIHPLMIRDAIDREVEAVDSEYQLARPSDANRKEMLFGSLARPGHPMGKFFWGNAETLKHEPRKNNIDTHARLREFWMRYYSSHYMTLVVQSKETLDTLEKWVTEIFSQIPNNGLPRPNFGHLTDPFDTPAFNKLYRVVPIRKIHALTITWALPPQQQHYRVKPLHYISWLVGHEGKGSILSFLRKKCWALALFGGNGETGFEQNSTYSVFSISITLTDEGYEHFYEVAYTVFQYLKMLQKLGPEKRIFEEIRKIEDNEFHYQEQTDPVEYVENMCENMQLYPLQDILTGDQLLFEYKPEVIGEALNQLVPQKANLVLLSGANEGKCDLKEKWFGTQYSIEDIENSWAELWNSNFELNPDLHLPAENKYIATDFTLKAFDCPETEYPVKIVNTPQGCLWYKKDNKFKIPKAYIRFHLISPLIQKSAANVVLFDIFVNILTHNLAEPAYEADVAQLEYKLVAGEHGLIIRVKGFNHKLPLLFQLIIDYLAEFNSTPAVFTMITEQLKKTYFNILIKPETLAKDVRLLILEYARWSMIDKYQALMDGLSLESLLSFVKEFKSQLFVEGLVQGNVTSTESMDFLKYVVDKLNFKPLEQEMPVQFQVVELPSGHHLCKVKALNKGDANSEVTVYYQSGTRSLREYTLMELLVMHMEEPCFDFLRTKQTLGYHVYPTCRNTSGILGFSVTVGTQATKYNSEVVDKKIEEFLSSFEEKIENLTEEAFNTQVTALIKLKECEDTHLGEEVDRNWNEVVTQQYLFDRLAHEIEALKSFSKSDLVNWFKAHRGPGSKMLSVHVVGYGKYELEEDGTPSSEDSNSSCEVMQLTYLPTSPLLADCIIPITDIRAFTTTLNLLPYHKIVK [NRDC]”, for which the melting temperature by setting is: (cell cycle stage: G1/S) 50.5 °C; (cell cycle stage: mitosis) 50.9 °C. In the case of “MLVTAYLAFVGLLASCLGLELSRCRAKPPGRACSNPSFLRFQLDFYQVYFLALAADWLQAPYLYKLYQHYYFLEGQIAILYVCGLASTVLFGLVASSLVDWLGRKNSCVLFSLTYSLCCLTKLSQDYFVLLVGRALGGLSTALLFSAFEAWYIHEHVERHDFPAEWIPATFARAAFWNHVLAVVAGVAAEAVASWIGLGPVAPFVAAIPLLALAGALALRNWGENYDRQRAFSRTCAGGLRCLLSDRRVLLLGTIQALFESVIFIFVFLWTPVLDPHGAPLGIIFSSFMAASLLGSSLYRIATSKRYHLQPMHLLSLAVLIVVFSLFMLTFSTSPGQESPVESFIAFLLIELACGLYFPSMSFLRRKVIPETEQAGVLNWFRVPLHSLACLGLLVLHDSDRKTGTRNMFSICSAVMVMALLAVVGLFTVVRHDAELRVPSPTEEPYAPEL [MFSD5]”, the melting temperature (cell cycle stage: mitosis) worked out at 54.9 °C. For “MNCEREQLRGNQEAAAAPDTMAQPYASAQFAPPQNGIPAEYTAPHPHPAPEYTGQTTVPEHTLNLYPPAQTHSEQSPADTSAQTVSGTATQTDDAAPTDGQPQTQPSENTENKSQPKRLHVSNIPFRFRDPDLRQMFGQFGKILDVEIIFNERGSKGFGFVTFENSADADRAREKLHGTVVEGRKIEVNNATARVMTNKKTVNPYTNGWKLNPVVGAVYSPEFYAGTVLLCQANQEGSSMYSAPSSLVYTSAMPGFPYPAATAAAAYRGAHLRGRGRTVYNTFRAAAPPPPIPAYGGVVYQDGFYGADIYGGYAAYRYAQPTPATAAAYSDSYGRVYAADPYHHALAPAPTYGVGAMNAFAPLTDAKTRSHADDVGLVLSSLQASIYRGGYNRFAPY [RBFOX1]”, for the setting “cell cycle stage: G1/S”, the melting temperature worked out at 49.8 °C. For “MNHLPEDMENALTGSQSSHASLRNIHSINPTQLMARIESYEGREKKGISDVRRTFCLFVTFDLLFVTLLWIIELNVNGGIENTLEKEVMQYDYYSSYFDIFLLAVFRFKVLILAYAVCRLRHWWAIALTTAVTSAFLLAKVILSKLFSQGAFGYVLPIISFILAWIETWFLDFKVLPQEAEEENRLLIVQDASERAALIPGGLSDGQFYSPPESEAGSEEAEEKQDSEKPLLEL [STARD3NL]”, the melting temperature (cell cycle stage: G1/S) worked out at 55.4 °C.

Consider “MPGPSPGLRRALLGLWAALGLGLFGLSAVSQEPFWADLQPRVAFVERGGSLWLNCSTNCPRPERGGLETSLRRNGTQRGLRWLARQLVDIREPETQPVCFFRCARRTLQARGLIRTFQRPDRVELMPLPPWQPVGENFTLSCRVPGAGPRASLTLTLLRGAQELIRRSFAGEPPRARGAVLTATVLARREDHGANFSCRAELDLRPHGLGLFENSSAPRELRTFSLSPDAPRLAAPRLLEVGSERPVSCTLDGLFPASEARVYLALGDQNLSPDVTLEGDAFVATATATASAEQEGARQLVCNVTLGGENRETRENVTIYSFPAPLLTLSEPSVSEGQMVTVTCAAGAQALVTLEGVPAAVPGQPAQLQLNATENDDRRSFFCDATLDVDGETLIKNRSAELRVLYAPRLDDSDCPRSWTWPEGPEQTLRCEARGNPEPSVHCARSDGGAVLALGLLGPVTRALSGTYRCKAANDQGEAVKDVTLTVEYAPALDSVGCPERITWLEGTEASLSCVAHGVPPPDVICVRSGELGAVIEGLLRVAREHAGTYRCEATNPRGSAAKNVAVTVEYGPRFEEPSCPSNWTWVEGSGRLFSCEVDGKPQPSVKCVGSGGATEGVLLPLAPPDPSPRAPRIPRVLAPGIYVCNATNRHGSVAKTVVVSAESPPEMDESTCPSHQTWLEGAEASALACAARGRPSPGVRCSREGIPWPEQQRVSREDAGTYHCVATNAHGTDSRTVTVGVEYRPVVAELAASPPGGVRPGGNFTLTCRAEAWPPAQISWRAPPGALNIGLSSNNSTLSVAGAMGSHGGEYECAATNAHGRHARRITVRVAGPWLWVAVGGAAGGAALLAAGAGLAFYVQSTACKKGEYNVQEAESSGEAVCLNGAGGGAGGAAGAEGGPEAAGGAAESPAEGEVFAIQLTSA [ICAM5]”, for which the melting temperature (cell cycle stage: G1/S) was 54.5 °C. Regarding “MPSETPQAEVGPTGCPHRSGPHSAKGSLEKGSPEDKEAKEPLWIRPDAPSRCTWQLGRPASESPHHHTAPAKSPKILPDILKKIGDTPMVRINKIGKKFGLKCELLAKCEFFNAGGSVKDRISLRMIEDAERDGTLKPGDTIIEPTSGNTGIGLALAAAVRGYRCIIVMPEKMSSEKVDVLRALGAEIVRTPTNARFDSPESHVGVAWRLKNEIPNSHILDQYRNASNPLAHYDTTADEILQQCDGKLDMLVASVGTGGTITGIARKLKEKCPGCRIIGVDPEGSILAEPEELNQTEQTTYEVEGIGYDFIPTVLDRTVVDKWFKSNDEEAFTFARMLIAQEGLLCGGSAGSTVAVAVKAAQELQEGQRCVVILPDSVRNYMTKFLSDRWMLQKGFLKEEDLTEKKPWWWHLRVQELGLSAPLTVLPTITCGHTIEILREKGFDQAPVVDEAGVILGMVTLGNMLSSLLAGKVQPSDQVGKVIYKQFKQIRLTDTLGRLSHILEMDHFALVVHEQIQYHSTGKSSQRQMVFGVVTAIDLLNFVAAQERDQK [CBS]”, the melting temperature is 55 °C (cell cycle stage: G1/S) and 55.8 °C (cell cycle stage: mitosis). “MQSREDAPRSRRLASPRGGKRPKKIHKPTVSAFFTGPEELKDTAHSAALLAQLKSFYDARLLCDVTIEVVTPGSGPGTGRLFPCNRNVLAAACPYFKSMFTGGMYESQQASVTMHDVDAESFEVLVDYCYTGRVSLSEANVERLYAASDMLQLEYVREACASFLARRLDLTNCTAILKFADAFGHRKLRSQAQSYIAQNFKQLSHMGSIREETLADLTLAQLLAVLRLDSLDVESEQTVCHVAVQWLEAAPKERGPSAAEVFKCVRWMHFTEEDQDYLEGLLTKPIVKKYCLDVIEGALQMRYGDLLYKSLVPVPNSSSSSSSSNSLVSAAENPPQRLGMCAKEMVIFFGHPRDPFLCCDPYSGDLYKVPSPLTCLAHTRTVTTLAVCISPDHDIYLAAQPRTDLWVYKPAQNSWQQLADRLLCREGMDVAYLNGYIYILGGRDPITGVKLKEVECYNVKRNQWALVAPLPHSFLSFDLMVIRDYLYALNSKRMFCYDPSHNMWLKCVSLKRNDFQEACVFNEEIYCICDIPVMKVYNPVRAEWRQMNNIPLVSETNNYRIIKHGQKLLLITSRTPQWKKNRVTVYEYDIRGDQWINIGTTLGLLQFDSNFFCLSARVYPSCLEPGQSFLTEEEEIPSESSTEWDLGGFSEPDSESGSSSSLSDDDFWVRVAPQ [KBTBD6]”: the melting temperature by setting is: (cell cycle stage: G1/S) 50.6 °C; (cell cycle stage: mitosis) 51.1 °C. Sequence “MSAARESHPHGVKRSASPDDDLGSSNWEAADLGNEERKQKFLRLMGAGKKEHTGRLVIGDHKSTSHFRTGEEDKKINEELESQYQQSMDSKLSGRYRRHCGLGFSEVEDHDGEGDVAGDDDDDDDDSPDPESPDDSESDSESEKEESAEELQAAEHPDEVEDPKNKKDAKSNYKMMFVKSSGS [C11ORF58]” came in with a melting temperature (cell cycle stage: G1/S) of 55 °C. As for “MSKAHPPELKKFTDKKFSLKLNGGRHVQGILRGFDPFMNLVIDECVEMATSGQQKNIGMVEIRGNSIIMLEALERV [SNRPGP15]”, the melting temperature came to 53.6 °C (cell cycle stage: G1/S) and 54 °C (cell cycle stage: mitosis).
